These are literature values, as cited in US10385405B2, “Gene expression markers of tumor resistance to HER2 inhibitor treatment” (GENENTECH, INC., priority 2007, dated 2019).

Series [1] has as its system incurable, locally advanced, recurrent or metastatic solid tumors.
Series [2] concerns trastuzumab-resistant models harboring PTEN loss or PIK3CA activating mutations.

On to “Pertuzumab: HER dimerization inhibitor antibody that inhibits HER2 forming heterodimers with other HER receptors”, for which the tolerability entry in series [1] (given intravenously every 3 weeks) is recorded as “generally well tolerated”. Further, the confirmed partial responses entry in series [1] (in vivo) is given as “Two”. Also, the tumor regression in series [1] (patients evaluable for response) is 3 of 20. Also, the “pharmacokinetics, linearity” value (doses of 2.0-15 mg/kg) was “linear”. For the same molecule, the antibodies to pertuzumab entry (in vivo) is “not detected”.
Turning to `CS(=O)(=O)N1CCN(Cc2cc3nc(-c4cccc5[nH]ncc45)nc(N4CCOCC4)c3s2)CC1` [GDC-0941], in series [2], the “sensitivity of trastuzumab-resistant models” value is recorded as “sensitive”.
